Assay results reported in paper PMC6555819, “Comprehensive study of nuclear receptor DNA binding provides a revised framework for understanding receptor specificity”.
Numbering of substitutions follows the chain as printed.

B1: NRC3_wobSeed113_DR4_T8C_o1 (dsDNA)
DNA 1: GCATATGCAGGTTAGCTGGGGTCATTCAGACTAGGCGCGATTGACAGCGTAGAATGAAGG
DNA 2: CCTTCATTCTACGCTGTCAATCGCGCCTAGTCTGAATGACCCCAGCTAACCTGCATATGC
B2: NRC3_wobSeed113_DR4_G29T_o1 (dsDNA)
DNA 1: B1 DNA 1 with C8T, G29T
DNA 2: B1 DNA 2 with C32A, G53A
B3: NRC3_wobSeed97_DR4_A17T_o1 (dsDNA)
DNA 1: GCCAAACTAGGTCACGTAAGGTCAAAGTCGAATGACGCGATTGACAGCGTAGAATGAAGG
DNA 2: CCTTCATTCTACGCTGTCAATCGCGTCATTCGACTTTGACCTTACGTGACCTAGTTTGGC
B4: NRC3_wobSeed97_DR4_A17C_o1 (dsDNA)
DNA 1: B3 DNA 1 with T17C
DNA 2: B3 DNA 2 with A44G
B5: NRC3_wobSeed53_DR2_C8G_o1 (dsDNA)
DNA 1: GCCCTTAGGGGTCACGAGGTTATAGCACGACGAGCGGCGATTGACAGCGTAGAATGAAGG
DNA 2: CCTTCATTCTACGCTGTCAATCGCCGCTCGTCGTGCTATAACCTCGTGACCCCTAAGGGC
B6: NRC3_wobSeed45_DR1_T11G_o1 (dsDNA)
DNA 1: GCTGTCAAAGGTCAAAGGTAACGTAAGTATCCACACGCGATTGACAGCGTAGAATGAAGG
DNA 2: CCTTCATTCTACGCTGTCAATCGCGTGTGGATACTTACGTTACCTTTGACCTTTGACAGC
B7: NRC3_wobSeed103_DR4_A13C_o1 (dsDNA)
DNA 1: GCGCATATAGGTCATACAAGGTGAAAGTCCGATTGTGCGATTGACAGCGTAGAATGAAGG
DNA 2: CCTTCATTCTACGCTGTCAATCGCACAATCGGACTTTCACCTTGTATGACCTATATGCGC
B8: NRC3_wobSeed26_DR1_T9A_o1 (dsDNA)
DNA 1: GCTCTAGTAGGTCAAAGGTCACACACTCGAAATGCGGCGATTGACAGCGTAGAATGAAGG
DNA 2: CCTTCATTCTACGCTGTCAATCGCCGCATTTCGAGTGTGTGACCTTTGACCTACTAGAGC
B9: NRC3_wobSeed26_DR1_T9G_o1 (dsDNA)
DNA 1: B8 DNA 1 with A9G
DNA 2: B8 DNA 2 with T52C

What was measured:
THRa:RXRa = THRa:RXRa (Homo sapiens, UniProt P10827;P19793 full;full); assay: no ligand; PBM; 90 nM : 90 nM RXRa; PBS pH 7.4, 2% milk, 0.02% Triton X-100, 1 mM DTT, BSA, 0.4 mg/ml salmon testes DNA; settings: tags: His kept;His cleaved; copies: 1;1; label: surface-attached array probe
PXR:RXRa = PXR:RXRa (Homo sapiens, UniProt O75469;P19793 full;full); assay: no ligand; PBM; 270 nM : 90 nM RXRa; PBS pH 7.4, 2% milk, 0.02% Triton X-100, 1 mM DTT, BSA, 0.4 mg/ml salmon testes DNA; settings: tags: His kept;His cleaved; copies: 1;1; label: surface-attached array probe
PXR:RXRa, sequence (O75469 whole entry, chain 1 of 2): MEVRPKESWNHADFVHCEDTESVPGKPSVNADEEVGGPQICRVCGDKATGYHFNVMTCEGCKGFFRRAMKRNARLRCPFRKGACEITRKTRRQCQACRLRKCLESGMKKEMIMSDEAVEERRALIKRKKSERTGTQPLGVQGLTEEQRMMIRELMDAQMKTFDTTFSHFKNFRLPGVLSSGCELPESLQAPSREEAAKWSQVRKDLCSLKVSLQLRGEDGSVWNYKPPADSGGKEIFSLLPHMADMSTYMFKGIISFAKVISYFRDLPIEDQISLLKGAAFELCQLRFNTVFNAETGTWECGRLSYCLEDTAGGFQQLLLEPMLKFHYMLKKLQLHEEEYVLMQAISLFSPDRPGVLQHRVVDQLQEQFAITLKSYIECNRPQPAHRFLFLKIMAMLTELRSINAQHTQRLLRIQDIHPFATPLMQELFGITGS
PXR:RXRa, sequence (P19793 whole entry, chain 2 of 2): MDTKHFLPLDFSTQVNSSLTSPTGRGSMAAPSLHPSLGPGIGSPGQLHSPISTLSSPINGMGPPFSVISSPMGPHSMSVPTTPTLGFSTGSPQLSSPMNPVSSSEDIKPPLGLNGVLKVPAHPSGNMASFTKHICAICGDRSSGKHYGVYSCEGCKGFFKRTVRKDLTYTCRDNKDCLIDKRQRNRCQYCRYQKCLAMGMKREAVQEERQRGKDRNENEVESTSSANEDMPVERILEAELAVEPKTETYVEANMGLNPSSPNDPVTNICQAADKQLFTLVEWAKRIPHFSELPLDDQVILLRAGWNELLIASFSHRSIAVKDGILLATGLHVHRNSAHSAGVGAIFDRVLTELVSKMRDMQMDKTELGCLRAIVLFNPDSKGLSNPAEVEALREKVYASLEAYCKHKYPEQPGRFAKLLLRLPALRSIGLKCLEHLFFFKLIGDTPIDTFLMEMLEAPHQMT
Procedure, shortened: (§1)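 Antibodies against each partner of ligand-free nuclear receptor dimers (one per run) detected binding on custom Agilent 4×180K protein-binding microarrays after 1 h incubation. The double-stranded probes had 34-nt variable regions carrying direct-repeat seeds, single-nucleotide variants, half-site ablations and random human genomic background sequences. Binding z-scores, from regression-normalized fluorescence, use the random background probes as reference.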

LXRa:RXRa = LXRa:RXRa (Homo sapiens, UniProt Q13133;P19793 full;full); assay: as above; settings: tags: His kept;His cleaved; copies: 1;1; label: surface-attached array probe
Procedure, shortened: as §1

RARb:RXRa = RARb:RXRa (Homo sapiens, UniProt P10826;P19793 full;full); assay: as above; settings: tags: His kept;His cleaved; copies: 1;1; label: surface-attached array probe
RARb:RXRa, sequence (P10826 whole entry, chain 1 of 2): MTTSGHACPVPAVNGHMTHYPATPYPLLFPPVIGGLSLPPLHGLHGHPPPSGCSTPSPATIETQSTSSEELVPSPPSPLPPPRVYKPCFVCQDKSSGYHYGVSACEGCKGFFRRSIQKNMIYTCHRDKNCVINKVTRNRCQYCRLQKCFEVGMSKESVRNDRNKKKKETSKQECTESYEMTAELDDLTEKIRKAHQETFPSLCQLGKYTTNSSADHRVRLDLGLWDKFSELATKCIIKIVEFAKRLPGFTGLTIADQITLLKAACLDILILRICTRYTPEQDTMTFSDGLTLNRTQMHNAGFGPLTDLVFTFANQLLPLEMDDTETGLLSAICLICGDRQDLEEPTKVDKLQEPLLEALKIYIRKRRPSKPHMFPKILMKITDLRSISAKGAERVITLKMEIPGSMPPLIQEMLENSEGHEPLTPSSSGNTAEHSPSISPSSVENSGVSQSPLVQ
RARb:RXRa, sequence (P19793 whole entry, chain 2 of 2): as the sequence (P19793 whole entry, chain 2 of 2) above
Procedure, shortened: as §1

LXRb:RXRa = LXRb:RXRa (Homo sapiens, UniProt P55055;P19793 full;full); assay: as above; settings: tags: His kept;His cleaved; copies: 1;1; label: surface-attached array probe
Procedure, shortened: as §1

RARg:RXRa = RARg:RXRa (Homo sapiens, UniProt P13631;P19793 full;full); assay: as above; settings: tags: His kept;His cleaved; copies: 1;1; label: surface-attached array probe
RARg:RXRa, sequence (P13631 whole entry, chain 1 of 2): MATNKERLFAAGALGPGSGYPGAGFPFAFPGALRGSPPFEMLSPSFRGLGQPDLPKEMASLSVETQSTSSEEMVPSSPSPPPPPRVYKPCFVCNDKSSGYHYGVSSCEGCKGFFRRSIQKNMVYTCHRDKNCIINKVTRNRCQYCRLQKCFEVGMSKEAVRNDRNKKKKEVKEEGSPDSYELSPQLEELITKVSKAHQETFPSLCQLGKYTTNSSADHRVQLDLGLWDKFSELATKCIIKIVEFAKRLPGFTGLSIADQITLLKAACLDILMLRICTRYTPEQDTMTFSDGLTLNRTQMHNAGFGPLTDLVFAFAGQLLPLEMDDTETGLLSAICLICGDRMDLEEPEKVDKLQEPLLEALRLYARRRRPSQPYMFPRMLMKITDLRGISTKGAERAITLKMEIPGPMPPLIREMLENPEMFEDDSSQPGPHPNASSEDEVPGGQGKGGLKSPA
RARg:RXRa, sequence (P19793 whole entry, chain 2 of 2): as the sequence (P19793 whole entry, chain 2 of 2) above
Procedure, shortened: as §1

FXR:RXRa = FXR:RXRa (Homo sapiens, UniProt Q96RI1;P19793 full;full); assay: as above; settings: tags: His kept;His cleaved; copies: 1;1; label: surface-attached array probe
Procedure, shortened: as §1

VDR:RXRa = VDR:RXRa (Homo sapiens, UniProt P11473;P19793 full;full); assay: as above; settings: tags: His kept;His cleaved; copies: 1;1; label: surface-attached array probe
Procedure, shortened: as §1

RARa:RXRa = RARa:RXRa (Homo sapiens, UniProt P10276;P19793 full;full); assay: as above; settings: tags: His kept;His cleaved; copies: 1;1; label: surface-attached array probe
Procedure, shortened: as §1

PPARa:RXRa = PPARa:RXRa (Homo sapiens, UniProt Q07869;P19793 full;full); assay: as above; settings: tags: GST kept;His cleaved; copies: 1;1; label: surface-attached array probe
Procedure, shortened: as §1

PPARg:RXRa = PPARg:RXRa (Homo sapiens, UniProt P37231;P19793 full;full); assay: no ligand; PBM; 180 nM : 90 nM RXRa; PBS pH 7.4, 2% milk, 0.02% Triton X-100, 1 mM DTT, BSA, 0.4 mg/ml salmon testes DNA; settings: tags: His kept;His cleaved; copies: 1;1; label: surface-attached array probe
PPARg:RXRa, sequence (P37231 29-505, chain 1 of 2): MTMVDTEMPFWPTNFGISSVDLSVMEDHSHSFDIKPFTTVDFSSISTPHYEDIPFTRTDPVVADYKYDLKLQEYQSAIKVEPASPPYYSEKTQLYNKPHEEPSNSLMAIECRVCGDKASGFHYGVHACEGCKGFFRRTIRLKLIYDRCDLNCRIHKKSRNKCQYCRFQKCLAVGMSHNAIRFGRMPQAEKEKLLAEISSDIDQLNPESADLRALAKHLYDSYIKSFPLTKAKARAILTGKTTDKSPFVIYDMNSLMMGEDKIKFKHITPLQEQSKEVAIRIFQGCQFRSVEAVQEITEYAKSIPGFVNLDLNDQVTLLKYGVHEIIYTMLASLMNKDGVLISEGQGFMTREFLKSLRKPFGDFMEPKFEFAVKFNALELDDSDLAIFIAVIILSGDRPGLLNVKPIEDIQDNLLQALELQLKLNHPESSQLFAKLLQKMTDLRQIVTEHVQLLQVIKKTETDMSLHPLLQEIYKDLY
PPARg:RXRa, sequence (P19793 whole entry, chain 2 of 2): as the sequence (P19793 whole entry, chain 2 of 2) above

RXRa = RXRa (Homo sapiens, UniProt P19793); assay: no ligand; PBM; 180 nM; PBS pH 7.4, 2% milk, 0.02% Triton X-100, 1 mM DTT, BSA, 0.4 mg/ml salmon testes DNA; settings: tags: His cleaved; chain copies: 2; label: surface-attached array probe
RXRa, sequence (P19793 whole entry): as the sequence (P19793 whole entry, chain 2 of 2) above

Binder	binding signal (THRa:RXRa)	binding signal (PXR:RXRa)	binding signal (LXRa:RXRa)	binding signal (RARb:RXRa)	binding signal (LXRb:RXRa)	binding signal (RARg:RXRa)	binding signal (FXR:RXRa)	binding signal (VDR:RXRa)	binding signal (RARa:RXRa)	binding signal (PPARa:RXRa)	binding signal (PPARg:RXRa)	binding signal (RXRa)
B1	5.52 PBM z-score against 500 random probes											
B2	5.52 PBM z-score against 500 random probes											
B3	5.77 PBM z-score against 500 random probes											
B4	5.55 PBM z-score against 500 random probes											
B5		6.73 PBM z-score against 500 random probes	7.02 PBM z-score against 500 random probes	5.93 PBM z-score against 500 random probes	6.15 PBM z-score against 500 random probes	8.51 PBM z-score against 500 random probes	8.88 PBM z-score against 500 random probes	7.15 PBM z-score against 500 random probes	8.32 PBM z-score against 500 random probes	7.21 PBM z-score against 500 random probes	10.3 PBM z-score against 500 random probes	10.1 PBM z-score against 500 random probes
B6		6.66 PBM z-score against 500 random probes	7.81 PBM z-score against 500 random probes	6.49 PBM z-score against 500 random probes	6.94 PBM z-score against 500 random probes	8.53 PBM z-score against 500 random probes	9.11 PBM z-score against 500 random probes		8.2 PBM z-score against 500 random probes	7.31 PBM z-score against 500 random probes	12.1 PBM z-score against 500 random probes	10.1 PBM z-score against 500 random probes
B7	5.57 PBM z-score against 500 random probes											
B8		7.41 PBM z-score against 500 random probes	7.19 PBM z-score against 500 random probes	5.79 PBM z-score against 500 random probes	6.9 PBM z-score against 500 random probes	8.88 PBM z-score against 500 random probes	8.25 PBM z-score against 500 random probes	6.79 PBM z-score against 500 random probes	9.28 PBM z-score against 500 random probes	7.46 PBM z-score against 500 random probes	14.4 PBM z-score against 500 random probes	10.5 PBM z-score against 500 random probes
B9		6.94 PBM z-score against 500 random probes	6.72 PBM z-score against 500 random probes	5.62 PBM z-score against 500 random probes	6.79 PBM z-score against 500 random probes	8.6 PBM z-score against 500 random probes		7 PBM z-score against 500 random probes	8.89 PBM z-score against 500 random probes	7.42 PBM z-score against 500 random probes	13.8 PBM z-score against 500 random probes	10.2 PBM z-score against 500 random probes
